This passage reports activity results from patent US20210395761, “SERINE RECOMBINASES MEDIATING STABLE INTEGRATION INTO PLANT GENOMES” (GREENVENUS, LLC, published 2021).

Sequences and labels used below:
B1: N. benthamiana pseudo-attB Niben101Scf04574 (dsDNA)
DNA 1: TAGGCTTACATTCCTGATGTACTATCCCATTATGCAATAATAAAGATGCAAAATAGGAAATGTCATTGACAGCTACGAGATCTATCTTTATTGATTCACT
DNA 2: AGTGAATCAATAAAGATAGATCTCGTAGCTGTCAATGACATTTCCTATTTTGCATCTTTATTATTGCATAATGGGATAGTACATCAGGAATGTAAGCCTA
B2: N. benthamiana pseudo-attB Niben101Scf04030 (dsDNA)
DNA 1: TTGCTGTCTTTTCATACTTTTCTAAGTTGAAAGTACTTGAAAGTACGACCAAGAAAATGATTATATTTGACACAGAAAATGCAAGGTACTTTGAATGTGA
DNA 2: TCACATTCAAAGTACCTTGCATTTTCTGTGTCAAATATAATCATTTTCTTGGTCGTACTTTCAAGTACTTTCAACTTAGAAAAGTATGAAAAGACAGCAA
B3: N. benthamiana pseudo-attB Niben101Scf00773 (dsDNA)
DNA 1: ACATGGAGCAATGATGGAGAAAAATGGTGGTCATTACTACTGAAGTTGTCAAAGCAAAGCTGTCAGGTAACATCAAATGATCTCTAAATCAATTAGTCTT
DNA 2: AAGACTAATTGATTTAGAGATCATTTGATGTTACCTGACAGCTTTGCTTTGACAACTTCAGTAGTAATGACCACCATTTTTCTCCATCATTGCTCCATGT
B4: N. benthamiana pseudo-attB Niben101Scf13522 (dsDNA)
DNA 1: GGATAAGGGAGGGTTTAGATATTTTGAAAGGGTTAAGGGGTAAAATCACTAAGGGGGAATTAACAATGCACACTAGGGTTGCCTTAAAAGTGCCTATATA
DNA 2: TATATAGGCACTTTTAAGGCAACCCTAGTGTGCATTGTTAATTCCCCCTTAGTGATTTTACCCCTTAACCCTTTCAAAATATCTAAACCCTCCCTTATCC
B5: N. benthamiana pseudo-attB Niben101Scf00732 (dsDNA)
DNA 1: not shown
DNA 2: not shown
B6: N. benthamiana pseudo-attB Niben101Scf11415 (dsDNA)
DNA 1: CTAATATACATTGACAGTGTTAAAAAAAATCTATTAACGACAATATAGAGAAGAGAGTACTTACATGAATGACGTCTACTTTGACTCCGTCAATTCCAAC
DNA 2: GTTGGAATTGACGGAGTCAAAGTAGACGTCATTCATGTAAGTACTCTCTTCTCTATATTGTCGTTAATAGATTTTTTTTAACACTGTCAATGTATATTAG
B7: lettuce pseudo-attB 207599470 (dsDNA)
DNA 1: CAATGGTGAATATAGTCCGGCGACCAACTCTGTCCACTATCAGCAACGATAAAAAGGTCATGCTAAGACCCACAAGCCCAGTCACCACTGCTGACATAAG
DNA 2: CTTATGTCAGCAGTGGTGACTGGGCTTGTGGGTCTTAGCATGACCTTTTTATCGTTGCTGATAGTGGACAGAGTTGGTCGCCGGACTATATTCACCATTG
B8: lettuce pseudo-attB 328302882 (dsDNA)
DNA 1: TCCGTCACAAATTGCATCACTACGACTAAGATCTTCATCAATGATTCTATTAAGGAGATTCTTACATTGAAGGAGAAGTTACATAAATTCTTTATTATTT
DNA 2: AAATAATAAAGAATTTATGTAACTTCTCCTTCAATGTAAGAATCTCCTTAATAGAATCATTGATGAAGATCTTAGTCGTAGTGATGCAATTTGTGACGGA
B9: lettuce pseudo-attB 310607752 (dsDNA)
DNA 1: CACAAAAAATTGACCATTTCTAGCAACTTCCTATGATACGTTGATACTTTCTAAACATTAATTACAATGACAAAATGAAGTCTACCAAATCATTCATAGA
DNA 2: TCTATGAATGATTTGGTAGACTTCATTTTGTCATTGTAATTAATGTTTAGAAAGTATCAACGTATCATAGGAAGTTGCTAGAAATGGTCAATTTTTTGTG
B10: lettuce pseudo-attB 13364626 (dsDNA)
DNA 1: TGAATTTCTTATGAAGGTTACAACGCATCGTGGATTACAAGCAATTCTGTTTAGTCTGTTATGTTGTTGAATTTGAATGGATCTTGTCCTCAGTTACTCA
DNA 2: TGAGTAACTGAGGACAAGATCCATTCAAATTCAACAACATAACAGACTAAACAGAATTGCTTGTAATCCACGATGCGTTGTAACCTTCATAAGAAATTCA
B11: lettuce pseudo-attB 411877132 (dsDNA)
DNA 1: ATAAGTTTAGATCTTATTGAACTAGGCTTGTGGTGCTTGTTTAAGGCCATAAATCGCCTTATTCAAGCGACAAAAATGAGACGAATAGGTGGAGTCTTCA
DNA 2: TGAAGACTCCACCTATTCGTCTCATTTTTGTCGCTTGAATAAGGCGATTTATGGCCTTAAACAAGCACCACAAGCCTAGTTCAATAAGATCTAAACTTAT
B12: lettuce pseudo-attB 115327723 (dsDNA)
DNA 1: TATTTGTGATGTGACATGACAAATAATGATGTTACAATATTATGTACCTCTAAATGAGATCTAGCATTGAAGATTGCATGAATATTCTTGAGTGTGTTATT
DNA 2: AATAACACACTCAAGAATATTCATGCAATCTTCAATGCTAGATCTCATTTAGAGGTACATAATATTGTAACATCATTATTTGTCATGTCACATCACAAATA

T1 sequence (O32006 whole entry): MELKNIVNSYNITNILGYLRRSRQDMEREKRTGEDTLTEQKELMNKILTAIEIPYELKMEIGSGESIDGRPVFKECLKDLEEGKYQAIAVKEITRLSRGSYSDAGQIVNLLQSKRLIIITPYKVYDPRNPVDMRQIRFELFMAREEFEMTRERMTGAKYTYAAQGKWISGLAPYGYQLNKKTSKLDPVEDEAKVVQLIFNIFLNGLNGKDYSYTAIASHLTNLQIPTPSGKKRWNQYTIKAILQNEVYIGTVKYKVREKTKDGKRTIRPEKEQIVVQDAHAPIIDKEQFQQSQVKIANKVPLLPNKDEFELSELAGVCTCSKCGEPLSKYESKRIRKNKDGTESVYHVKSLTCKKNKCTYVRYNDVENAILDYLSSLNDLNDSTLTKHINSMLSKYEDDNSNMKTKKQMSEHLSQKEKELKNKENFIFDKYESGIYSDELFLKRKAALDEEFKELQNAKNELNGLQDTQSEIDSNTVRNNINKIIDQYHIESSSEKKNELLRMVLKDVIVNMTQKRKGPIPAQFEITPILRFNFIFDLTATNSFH

For the first series, the target named is T1, SPβc2 serine recombinase (SPβc2-HA-NLS) (Bacillus subtilis phage SPβc2, UniProt O32006 SEQ:1-545). Briefly: cell_activity; partner attP vector. As to conditions: tags: C-terminal HA and SV40 NLS. As for the experimental part:
Wild tobacco relative Nicotiana benthamiana (Benthi) events were generated through co-transfection of a SPβc2 expression vector (or control filler vector: CAT) plus a target integration vector containing GFP, NptII, and a SPβc2 attachment site (attP, attB, or site-less control). Colonies were regenerated in the presence of a kanamycin gradient to detect NptII and the presence of GFP was determined through illumination with a blue “biolight” together with an appropriate filter (FIG. 1). […] Enhanced regeneration of transgenic colonies varied between 10 and 65 fold and was dependent on the Kanamycin concentration used for selection. […] Very few GFP-positive kanamycin-resistant colonies arose from the attB/SPβc2 or Siteless/SPβc2 conditions, indicating a dependence on the attP site for interaction with plant pseudo-attB sites. […] A total of 126 plants from 91 unique calli events were regenerated, transplanted into soil, and carried forward to seed collection (Table 7).
To determine whether any of the sites identified by GenomeWalker were preferentially utilized for integration by the SPβc2 recombinase, 64 attP/SPβc2 regenerated events were screened by end-point PCR for amplification of the left (35S side) gDNA:insert border.
With B1, the activity was 1 integration events. Turning to B2, the activity is 2 integration events.

For B3, the activity was found to be 1 integration events. For B4, the activity was 2 integration events.

For the molecule B5, the activity was 1 integration events.

As to B6, the activity was 1 integration events.

In the next series the target is T1, SPβc2 serine recombinase (SPβc2-HA-NLS). The experiment in a line: cell_activity; partner attP vector. As to conditions: tags: C-terminal HA and SV40 NLS. The source holds these as a separate data set. The source says: In addition to the 20 GFP-positive kanamycin-resistant regenerated events, 35 GFP-positive kanamycin-resistant calli were also sampled for gDNA extraction and insertion analysis. These events were not analyzed by qPCR for NPT-II copy number due to the likelihood of circular non-integrated plasmid being present in the callus tissue. The 55 unique GFP-positive kanamycin-resistant attP/SPβc2 events were screened by end-point PCR for the right gDNA:insert junction (SpecR side) for each of the 7 previously identified integration sites. Four of the 7 insertion sites were identified in multiple unique events with one of the integration sites found in 8 events including the 2 events in which it was identified by next-gen sequencing (Table 13). Sanger sequencing of amplicons from both left and right gDNA:insert borders for 3 of the events with integrations in site 7493878 identified a lbp difference in the insert:gDNA recombination site compared to the originally identified borders (FIG. 20 C-E). As was done in Benthi, the population was also screened for presence of the recombinase expression construct (ID363); it was found in 2 out of the 20 regenerated attP/SPβc2 events (data not shown).
Turning to B7, the activity is 7 integration events. Same read-out and setting: for B8 the value was 2 integration events; for B9, 1 integration events; for B10, 1 integration events.

As for B11, the activity came to 2 integration events.

For the molecule B12, the activity is 1 integration events.
